Some results are limits rather than exact numbers.

In assay [1] the target is ALK6. In words: solid-phase binding assay, half max read from the curve (FIG. 8).
In assay [2] the target is ALK6. Kind of assay: solid-phase binding assay, MuSK construct immobilized, ALK6 titrated, pH 6.0; given as Half Max.
Assay [3] concerns the target ALK6. Kind of assay: solid-phase binding assay, MuSK construct immobilized, ALK6 at 100 nM (FIG. 8).
In assay [4] the target is ALK6. In words: solid-phase binding assay, saturation measured at 100 nM ALK6, pH 6.0.
Assay [5] has as its target ALK6. In words: solid-phase binding assay, pH 6.0 (FIG. 12).
Assay [6] addresses ALK6. In words: solid-phase binding assay, MuSK construct immobilized, ALK6 titrated, pH 7.4; given as Half Max.
Assay [7] deals with ALK6. Kind of assay: solid-phase binding assay, pH 7.4 (FIG. 12).
Assay [8] addresses ALK6. Kind of assay: solid-phase binding assay, saturation measured at 100 nM ALK6, pH 7.4.
In assay [9] the target is ALK6. In words: solid-phase binding assay, MuSK immobilized, ALK6 at 100 nM (FIG. 7).
Assay [10] addresses ALK6. In words: solid-phase binding assay, half max read from the curve (FIG. 10).
Assay [11] concerns the target ALK6. In words: solid-phase binding assay, pH 6.0 (FIG. 13).
Assay [12] deals with ALK6. In words: solid-phase binding assay, pH 7.4 (FIG. 13).
In assay [13] the target is ALK6. Kind of assay: solid-phase binding assay, several assays, ALK6 at 100 nM.
The target of assay [14] is ALK6. Kind of assay: solid-phase binding assay, isolated domain immobilized, ALK6 titrated (FIG. 9).
For assay [15], the target named is ALK6. In words: solid-phase binding assay, half max read from the curve (FIG. 9).

Chain of MuSK Ig1-Ig2 only construct, His-tagged (receptor) (Q62838 22-205): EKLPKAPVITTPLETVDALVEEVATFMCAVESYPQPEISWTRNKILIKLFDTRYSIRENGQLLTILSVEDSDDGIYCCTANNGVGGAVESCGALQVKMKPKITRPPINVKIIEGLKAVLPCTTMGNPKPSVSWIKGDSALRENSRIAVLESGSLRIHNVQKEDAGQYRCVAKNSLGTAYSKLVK
Chain of ALK6 (O00238 14-126): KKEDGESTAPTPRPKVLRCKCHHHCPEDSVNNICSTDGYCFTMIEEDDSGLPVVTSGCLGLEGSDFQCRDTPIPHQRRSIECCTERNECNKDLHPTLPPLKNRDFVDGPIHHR
Chain of isolated MuSK Ig2 domain, His-tagged (receptor) (Q62838 121-205): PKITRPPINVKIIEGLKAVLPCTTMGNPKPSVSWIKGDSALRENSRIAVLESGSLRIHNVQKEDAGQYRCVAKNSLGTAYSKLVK

As for “MuSK Ig1-Ig2 only construct, His-tagged (receptor)”, the EC50 (commonly the concentration giving half of the maximal effect) with ALK6 [1] came out at 0.00625 µM; in the assay with ALK6 [2], 0.0159 µM; with ALK6 [5], 0.00625 µM; with ALK6 [6], 0.0182 µM; with ALK6 [7] it was 0.025 µM. Further, the absorbance at 100 nM ALK6 (absorbance (450 nm)) with ALK6 [3] was determined as 3. Also, the Saturation (%) was found to be 99% with ALK6 [4] and 21% with ALK6 [8]. The absorbance (absorbance (450 nm)) in the assay with ALK6 [5] was 3; in the assay with ALK6 [7], 0.75.
Substance “MuSK ectodomain with Ig2 deletion (ΔIg2), His-tagged (receptor)” showed an absorbance at 100 nM ALK6 (absorbance (450 nm)) with ALK6 [9] of 0.15.
Take “MuSK ectodomain with an Ig1 deletion (ΔIg1), His-tagged (receptor)”: the EC50 in the assay with ALK6 [10] stood at 0.0125 µM; with ALK6 [2], 0.0137 µM; with ALK6 [11], 0.0065 µM; with ALK6 [12], 0.0065 µM; with ALK6 [6] it was 0.0091 µM. Also, the maximum absorbance (absorbance (450 nm)) with ALK6 [11] and with ALK6 [12] was 4 each time. Moreover, the Saturation (%) with ALK6 [4] came out at 100%; with ALK6 [8], 99%. In the assay with ALK6 [13], the absorbance at 100 nM ALK6 (absorbance (450 nm)) was > 3.
In the assay with ALK6 [14], “isolated MuSK Ig2 domain, His-tagged (receptor)” registered an absorbance (absorbance (450 nm)) of 1.8. Besides, the concentration giving a half-maximal response (EC50) with ALK6 [2] was found to be 0.0236 µM; with ALK6 [15] it was 0.00625 µM. Further, the Saturation (%) with ALK6 [4] was 83%.
